Laboratory results: patent US20150147384A1 (MIT, published 2015)
No end group written: not given here.

Biological target: P-glycoprotein (UniProt P08183 1-1280)
Assay: cell-based or functional assay

P-glycoprotein, sequence (P08183 whole entry): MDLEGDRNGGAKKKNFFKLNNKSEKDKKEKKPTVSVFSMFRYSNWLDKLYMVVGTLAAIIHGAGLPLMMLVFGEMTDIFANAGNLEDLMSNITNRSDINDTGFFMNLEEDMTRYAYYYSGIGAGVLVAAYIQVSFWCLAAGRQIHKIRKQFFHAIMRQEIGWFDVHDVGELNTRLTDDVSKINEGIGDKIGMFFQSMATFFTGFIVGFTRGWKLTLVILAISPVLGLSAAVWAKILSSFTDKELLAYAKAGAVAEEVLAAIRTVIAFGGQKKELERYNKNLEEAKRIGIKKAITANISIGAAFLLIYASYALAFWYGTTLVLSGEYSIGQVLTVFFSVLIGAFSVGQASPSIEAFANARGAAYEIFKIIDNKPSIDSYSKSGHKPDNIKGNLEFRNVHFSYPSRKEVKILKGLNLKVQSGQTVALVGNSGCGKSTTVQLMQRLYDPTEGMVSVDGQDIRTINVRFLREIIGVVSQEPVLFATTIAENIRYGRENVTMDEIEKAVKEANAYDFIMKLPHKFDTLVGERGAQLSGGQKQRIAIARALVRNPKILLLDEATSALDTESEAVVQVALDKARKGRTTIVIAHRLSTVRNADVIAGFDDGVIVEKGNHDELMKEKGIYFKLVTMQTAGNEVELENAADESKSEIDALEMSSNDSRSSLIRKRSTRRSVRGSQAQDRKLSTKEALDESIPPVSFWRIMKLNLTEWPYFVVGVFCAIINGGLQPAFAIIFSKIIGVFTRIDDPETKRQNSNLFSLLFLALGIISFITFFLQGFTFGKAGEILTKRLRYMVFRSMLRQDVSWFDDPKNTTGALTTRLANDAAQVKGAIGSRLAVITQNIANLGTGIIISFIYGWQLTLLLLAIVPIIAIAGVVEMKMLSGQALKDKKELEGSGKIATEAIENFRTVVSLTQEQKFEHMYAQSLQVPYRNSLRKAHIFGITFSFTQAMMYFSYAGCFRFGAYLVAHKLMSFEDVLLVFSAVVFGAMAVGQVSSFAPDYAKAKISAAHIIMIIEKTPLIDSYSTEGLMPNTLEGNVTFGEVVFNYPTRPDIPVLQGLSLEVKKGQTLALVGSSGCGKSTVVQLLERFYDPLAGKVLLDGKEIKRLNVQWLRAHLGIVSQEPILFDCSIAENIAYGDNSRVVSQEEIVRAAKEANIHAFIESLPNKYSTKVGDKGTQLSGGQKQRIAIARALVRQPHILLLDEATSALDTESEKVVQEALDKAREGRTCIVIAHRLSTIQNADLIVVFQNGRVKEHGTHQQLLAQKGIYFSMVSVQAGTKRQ

Binder	Enhancement ratio of Rhodamine-123 transport against the control, peptide 0.02 mg/ml [ratio]	Enhancement ratio of Rhodamine-123 transport against the control, peptide concentration given as 2 mg/ml (caption: 0.2 mg/mL) [ratio]	Papp of Rhodamine-123 through a Caco-2 monolayer (basolateral to apical), peptide 0.02 mg/ml [×10⁻⁶ cm/s]	Papp of Rhodamine-123 through a Caco-2 monolayer (basolateral to apical), peptide concentration given as 2 mg/ml (caption: 0.2 mg/mL) [×10⁻⁶ cm/s]
KAAAAAA-NH2 [KAAAAAA-CONH2]	1	1	10.8	10.5
Ac-AAAAAAK-NH2 [acetyl-AAAAAAK-CONH2]	0.9	1.7	10	18.2
DAAAAAA-OH [DAAAAAA-COOH]	1.2	1.4	13	15.1
Ac-AAAAAAD-OH [acetyl-AAAAAAD-COOH]	0.9	1.7	10.1	18.4
